# In patent US20260167699A1 (Chugai, published 2026):
# Target: T1, FcγRIIIa extracellular domain, C-terminal His tag (human, UniProt P08637 17-208)
# T1 construct: extracellular domain; also called 3a
# Experiment: SPR, binding activity relative to GpH7-A5/GpH7-B3/GpL16-k0 (=100)
# T1 sequence (P08637 other isoform, or with tags, fused parts or gaps): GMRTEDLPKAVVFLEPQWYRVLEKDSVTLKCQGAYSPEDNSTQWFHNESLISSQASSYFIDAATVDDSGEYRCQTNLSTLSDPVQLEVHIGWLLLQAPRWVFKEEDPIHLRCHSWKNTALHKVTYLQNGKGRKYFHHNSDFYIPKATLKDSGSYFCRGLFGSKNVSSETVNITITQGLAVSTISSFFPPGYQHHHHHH
row,Binder,He/Con 3a [%]
1,"GpH7-A5/GpH7-B3 variant P331_19Q/GpL16-k0 (antibody, human IgG1, kappa, He Ab; copies: 1 + 1 + 2) heavy 1: not shown heavy 2: not shown light: DIVMTQSPLSLPVTPGEPASISCQASESLVHSNRNTYLHWYLQKPGQSPQLLIYKVSNRFSGVPDRFSGSGSGTDFTLKISRVEAEDVGVYYCSQNTHVPPTFGQGTKVEIERTVAAPSVFIFPPSDEQLKSGTASVVCLLNNFYPREAKVQWKVDNALQSGNSQESVTEQDSKDSTYSLSSTLTLSKADYEKHKVYACEVTHQGLSSPVTKSFNRGEC",73.9
2,"GpH7-A5/GpH7-B3 variant Q295_12R/GpL16-k0 (antibody, human IgG1, kappa, He Ab; copies: 1 + 1 + 2) heavy 1: not shown heavy 2: not shown light: DIVMTQSPLSLPVTPGEPASISCQASESLVHSNRNTYLHWYLQKPGQSPQLLIYKVSNRFSGVPDRFSGSGSGTDFTLKISRVEAEDVGVYYCSQNTHVPPTFGQGTKVEIERTVAAPSVFIFPPSDEQLKSGTASVVCLLNNFYPREAKVQWKVDNALQSGNSQESVTEQDSKDSTYSLSSTLTLSKADYEKHKVYACEVTHQGLSSPVTKSFNRGEC",73.2
3,"GpH7-A5/GpH7-B3 variant Q295_09D/GpL16-k0 (antibody, human IgG1, kappa, He Ab; copies: 1 + 1 + 2) heavy 1: not shown heavy 2: not shown light: DIVMTQSPLSLPVTPGEPASISCQASESLVHSNRNTYLHWYLQKPGQSPQLLIYKVSNRFSGVPDRFSGSGSGTDFTLKISRVEAEDVGVYYCSQNTHVPPTFGQGTKVEIERTVAAPSVFIFPPSDEQLKSGTASVVCLLNNFYPREAKVQWKVDNALQSGNSQESVTEQDSKDSTYSLSSTLTLSKADYEKHKVYACEVTHQGLSSPVTKSFNRGEC",85.6
4,"GpH7-A5/GpH7-B3 variant Q295_08L/GpL16-k0 (antibody, human IgG1, kappa, He Ab; copies: 1 + 1 + 2) heavy 1: not shown heavy 2: not shown light: DIVMTQSPLSLPVTPGEPASISCQASESLVHSNRNTYLHWYLQKPGQSPQLLIYKVSNRFSGVPDRFSGSGSGTDFTLKISRVEAEDVGVYYCSQNTHVPPTFGQGTKVEIERTVAAPSVFIFPPSDEQLKSGTASVVCLLNNFYPREAKVQWKVDNALQSGNSQESVTEQDSKDSTYSLSSTLTLSKADYEKHKVYACEVTHQGLSSPVTKSFNRGEC",120
5,"GpH7-A5/GpH7-B3 variant Q295_05P/GpL16-k0 (antibody, human IgG1, kappa, He Ab; copies: 1 + 1 + 2) heavy 1: not shown heavy 2: not shown light: DIVMTQSPLSLPVTPGEPASISCQASESLVHSNRNTYLHWYLQKPGQSPQLLIYKVSNRFSGVPDRFSGSGSGTDFTLKISRVEAEDVGVYYCSQNTHVPPTFGQGTKVEIERTVAAPSVFIFPPSDEQLKSGTASVVCLLNNFYPREAKVQWKVDNALQSGNSQESVTEQDSKDSTYSLSSTLTLSKADYEKHKVYACEVTHQGLSSPVTKSFNRGEC",74.4
6,"GpH7-A5/GpH7-B3 variant Q295_15Y/GpL16-k0 (antibody, human IgG1, kappa, He Ab; copies: 1 + 1 + 2) heavy 1: not shown heavy 2: not shown light: DIVMTQSPLSLPVTPGEPASISCQASESLVHSNRNTYLHWYLQKPGQSPQLLIYKVSNRFSGVPDRFSGSGSGTDFTLKISRVEAEDVGVYYCSQNTHVPPTFGQGTKVEIERTVAAPSVFIFPPSDEQLKSGTASVVCLLNNFYPREAKVQWKVDNALQSGNSQESVTEQDSKDSTYSLSSTLTLSKADYEKHKVYACEVTHQGLSSPVTKSFNRGEC",81.5
7,"GpH7-A5/GpH7-B3 variant Q295_10E/GpL16-k0 (antibody, human IgG1, kappa, He Ab; copies: 1 + 1 + 2) heavy 1: not shown heavy 2: not shown light: DIVMTQSPLSLPVTPGEPASISCQASESLVHSNRNTYLHWYLQKPGQSPQLLIYKVSNRFSGVPDRFSGSGSGTDFTLKISRVEAEDVGVYYCSQNTHVPPTFGQGTKVEIERTVAAPSVFIFPPSDEQLKSGTASVVCLLNNFYPREAKVQWKVDNALQSGNSQESVTEQDSKDSTYSLSSTLTLSKADYEKHKVYACEVTHQGLSSPVTKSFNRGEC",105
8,"GpH7-A5/GpH7-B3 variant Q295_07I/GpL16-k0 (antibody, human IgG1, kappa, He Ab; copies: 1 + 1 + 2) heavy 1: not shown heavy 2: not shown light: DIVMTQSPLSLPVTPGEPASISCQASESLVHSNRNTYLHWYLQKPGQSPQLLIYKVSNRFSGVPDRFSGSGSGTDFTLKISRVEAEDVGVYYCSQNTHVPPTFGQGTKVEIERTVAAPSVFIFPPSDEQLKSGTASVVCLLNNFYPREAKVQWKVDNALQSGNSQESVTEQDSKDSTYSLSSTLTLSKADYEKHKVYACEVTHQGLSSPVTKSFNRGEC",101
9,"GpH7-A5/GpH7-B3 variant Q295_04F/GpL16-k0 (antibody, human IgG1, kappa, He Ab; copies: 1 + 1 + 2) heavy 1: not shown heavy 2: not shown light: DIVMTQSPLSLPVTPGEPASISCQASESLVHSNRNTYLHWYLQKPGQSPQLLIYKVSNRFSGVPDRFSGSGSGTDFTLKISRVEAEDVGVYYCSQNTHVPPTFGQGTKVEIERTVAAPSVFIFPPSDEQLKSGTASVVCLLNNFYPREAKVQWKVDNALQSGNSQESVTEQDSKDSTYSLSSTLTLSKADYEKHKVYACEVTHQGLSSPVTKSFNRGEC",75.1
10,"GpH7-A5/GpH7-B3 variant Q295_18N/GpL16-k0 (antibody, human IgG1, kappa, He Ab; copies: 1 + 1 + 2) heavy 1: not shown heavy 2: not shown light: DIVMTQSPLSLPVTPGEPASISCQASESLVHSNRNTYLHWYLQKPGQSPQLLIYKVSNRFSGVPDRFSGSGSGTDFTLKISRVEAEDVGVYYCSQNTHVPPTFGQGTKVEIERTVAAPSVFIFPPSDEQLKSGTASVVCLLNNFYPREAKVQWKVDNALQSGNSQESVTEQDSKDSTYSLSSTLTLSKADYEKHKVYACEVTHQGLSSPVTKSFNRGEC",85.7
11,"GpH7-A5/GpH7-B3 variant S239_01G/GpL16-k0 (antibody, human IgG1, kappa, He Ab; also called 3239_01G; copies: 1 + 1 + 2) heavy 1: not shown heavy 2: not shown light: DIVMTQSPLSLPVTPGEPASISCQASESLVHSNRNTYLHWYLQKPGQSPQLLIYKVSNRFSGVPDRFSGSGSGTDFTLKISRVEAEDVGVYYCSQNTHVPPTFGQGTKVEIERTVAAPSVFIFPPSDEQLKSGTASVVCLLNNFYPREAKVQWKVDNALQSGNSQESVTEQDSKDSTYSLSSTLTLSKADYEKHKVYACEVTHQGLSSPVTKSFNRGEC",72
12,"GpH7-A5/GpH7-B3 variant Q295_03V/GpL16-k0 (antibody, human IgG1, kappa, He Ab; copies: 1 + 1 + 2) heavy 1: not shown heavy 2: not shown light: DIVMTQSPLSLPVTPGEPASISCQASESLVHSNRNTYLHWYLQKPGQSPQLLIYKVSNRFSGVPDRFSGSGSGTDFTLKISRVEAEDVGVYYCSQNTHVPPTFGQGTKVEIERTVAAPSVFIFPPSDEQLKSGTASVVCLLNNFYPREAKVQWKVDNALQSGNSQESVTEQDSKDSTYSLSSTLTLSKADYEKHKVYACEVTHQGLSSPVTKSFNRGEC",86.2
13,"GpH7-A5/GpH7-B3 variant Q295_02A/GpL16-k0 (antibody, human IgG1, kappa, He Ab; copies: 1 + 1 + 2) heavy 1: not shown heavy 2: not shown light: DIVMTQSPLSLPVTPGEPASISCQASESLVHSNRNTYLHWYLQKPGQSPQLLIYKVSNRFSGVPDRFSGSGSGTDFTLKISRVEAEDVGVYYCSQNTHVPPTFGQGTKVEIERTVAAPSVFIFPPSDEQLKSGTASVVCLLNNFYPREAKVQWKVDNALQSGNSQESVTEQDSKDSTYSLSSTLTLSKADYEKHKVYACEVTHQGLSSPVTKSFNRGEC",111
14,"GpH7-A5/GpH7-B3 variant Q295_16H/GpL16-k0 (antibody, human IgG1, kappa, He Ab; copies: 1 + 1 + 2) heavy 1: not shown heavy 2: not shown light: DIVMTQSPLSLPVTPGEPASISCQASESLVHSNRNTYLHWYLQKPGQSPQLLIYKVSNRFSGVPDRFSGSGSGTDFTLKISRVEAEDVGVYYCSQNTHVPPTFGQGTKVEIERTVAAPSVFIFPPSDEQLKSGTASVVCLLNNFYPREAKVQWKVDNALQSGNSQESVTEQDSKDSTYSLSSTLTLSKADYEKHKVYACEVTHQGLSSPVTKSFNRGEC",80.2
15,"GpH7-A5/GpH7-B3 variant Q295_11K/GpL16-k0 (antibody, human IgG1, kappa, He Ab; copies: 1 + 1 + 2) heavy 1: not shown heavy 2: not shown light: DIVMTQSPLSLPVTPGEPASISCQASESLVHSNRNTYLHWYLQKPGQSPQLLIYKVSNRFSGVPDRFSGSGSGTDFTLKISRVEAEDVGVYYCSQNTHVPPTFGQGTKVEIERTVAAPSVFIFPPSDEQLKSGTASVVCLLNNFYPREAKVQWKVDNALQSGNSQESVTEQDSKDSTYSLSSTLTLSKADYEKHKVYACEVTHQGLSSPVTKSFNRGEC",81.8
16,"GpH7-A5/GpH7-B3 variant S239_03V/GpL16-k0 (antibody, human IgG1, kappa, He Ab; copies: 1 + 1 + 2) heavy 1: not shown heavy 2: not shown light: DIVMTQSPLSLPVTPGEPASISCQASESLVHSNRNTYLHWYLQKPGQSPQLLIYKVSNRFSGVPDRFSGSGSGTDFTLKISRVEAEDVGVYYCSQNTHVPPTFGQGTKVEIERTVAAPSVFIFPPSDEQLKSGTASVVCLLNNFYPREAKVQWKVDNALQSGNSQESVTEQDSKDSTYSLSSTLTLSKADYEKHKVYACEVTHQGLSSPVTKSFNRGEC",72.4
17,"GpH7-A5/GpH7-B3 variant Q295_13S/GpL16-k0 (antibody, human IgG1, kappa, He Ab; copies: 1 + 1 + 2) heavy 1: not shown heavy 2: not shown light: DIVMTQSPLSLPVTPGEPASISCQASESLVHSNRNTYLHWYLQKPGQSPQLLIYKVSNRFSGVPDRFSGSGSGTDFTLKISRVEAEDVGVYYCSQNTHVPPTFGQGTKVEIERTVAAPSVFIFPPSDEQLKSGTASVVCLLNNFYPREAKVQWKVDNALQSGNSQESVTEQDSKDSTYSLSSTLTLSKADYEKHKVYACEVTHQGLSSPVTKSFNRGEC",90.4
18,"GpH7-A5/GpH7-B3 variant Q295_01G/GpL16-k0 (antibody, human IgG1, kappa, He Ab; copies: 1 + 1 + 2) heavy 1: not shown heavy 2: not shown light: DIVMTQSPLSLPVTPGEPASISCQASESLVHSNRNTYLHWYLQKPGQSPQLLIYKVSNRFSGVPDRFSGSGSGTDFTLKISRVEAEDVGVYYCSQNTHVPPTFGQGTKVEIERTVAAPSVFIFPPSDEQLKSGTASVVCLLNNFYPREAKVQWKVDNALQSGNSQESVTEQDSKDSTYSLSSTLTLSKADYEKHKVYACEVTHQGLSSPVTKSFNRGEC",76.6
19,"GpH7-A5/GpH7-B3 variant P331_20W/GpL16-k0 (antibody, human IgG1, kappa, He Ab; copies: 1 + 1 + 2) heavy 1: not shown heavy 2: not shown light: DIVMTQSPLSLPVTPGEPASISCQASESLVHSNRNTYLHWYLQKPGQSPQLLIYKVSNRFSGVPDRFSGSGSGTDFTLKISRVEAEDVGVYYCSQNTHVPPTFGQGTKVEIERTVAAPSVFIFPPSDEQLKSGTASVVCLLNNFYPREAKVQWKVDNALQSGNSQESVTEQDSKDSTYSLSSTLTLSKADYEKHKVYACEVTHQGLSSPVTKSFNRGEC",71.9
20,"GpH7-A5/GpH7-B3 variant S239_02A/GpL16-k0 (antibody, human IgG1, kappa, He Ab; copies: 1 + 1 + 2) heavy 1: not shown heavy 2: not shown light: DIVMTQSPLSLPVTPGEPASISCQASESLVHSNRNTYLHWYLQKPGQSPQLLIYKVSNRFSGVPDRFSGSGSGTDFTLKISRVEAEDVGVYYCSQNTHVPPTFGQGTKVEIERTVAAPSVFIFPPSDEQLKSGTASVVCLLNNFYPREAKVQWKVDNALQSGNSQESVTEQDSKDSTYSLSSTLTLSKADYEKHKVYACEVTHQGLSSPVTKSFNRGEC",70.9
21,"GpH7-A5/GpH7-B3 variant Q295_06M/GpL16-k0 (antibody, human IgG1, kappa, He Ab; copies: 1 + 1 + 2) heavy 1: not shown heavy 2: not shown light: DIVMTQSPLSLPVTPGEPASISCQASESLVHSNRNTYLHWYLQKPGQSPQLLIYKVSNRFSGVPDRFSGSGSGTDFTLKISRVEAEDVGVYYCSQNTHVPPTFGQGTKVEIERTVAAPSVFIFPPSDEQLKSGTASVVCLLNNFYPREAKVQWKVDNALQSGNSQESVTEQDSKDSTYSLSSTLTLSKADYEKHKVYACEVTHQGLSSPVTKSFNRGEC",100
22,"GpH7-A5/GpH7-B3 variant Q295_14T/GpL16-k0 (antibody, human IgG1, kappa, He Ab; copies: 1 + 1 + 2) heavy 1: not shown heavy 2: not shown light: DIVMTQSPLSLPVTPGEPASISCQASESLVHSNRNTYLHWYLQKPGQSPQLLIYKVSNRFSGVPDRFSGSGSGTDFTLKISRVEAEDVGVYYCSQNTHVPPTFGQGTKVEIERTVAAPSVFIFPPSDEQLKSGTASVVCLLNNFYPREAKVQWKVDNALQSGNSQESVTEQDSKDSTYSLSSTLTLSKADYEKHKVYACEVTHQGLSSPVTKSFNRGEC",120
